The values below come from PMC11428563, “Systematic design and evaluation of aptamers for VEGF and PlGF biomarkers of Preeclampsia”.

Holding throughout (conditions): protein: commercial; tags: His; chain copies: 2
Data set [1] deals with T1, PlGF (Human PlGF / PGF (19-149) Protein, His Tag, Acrobiosystems PGF-H52H5) (human, UniProt P49763-2 19-149).
T1 sequence: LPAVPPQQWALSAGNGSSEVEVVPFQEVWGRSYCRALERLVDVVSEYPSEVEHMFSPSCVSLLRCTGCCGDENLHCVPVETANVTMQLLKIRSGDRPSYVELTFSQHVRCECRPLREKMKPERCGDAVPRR
Put plainly: BLI; kon 2.746e3 1/Ms; koff 5.548e-7 1/s; BLI (Octet R4, anti-penta-His HIS1K sensors): protein loaded in phosphate buffer pH 7.4 (PlGF 2.5 ug/mL, VEGF 10 ug/mL); aptamers 0-20 uM in 1X Sartorius Kinetics Buffer; 1:1 global fit, triplicate; temperature not stated.

The target in data set [2] is T1, PlGF (Human PlGF / PGF (19-149) …). Put plainly: BLI; kon 1.772e4 1/Ms; koff 2.049e-1 1/s; BLI (Octet R4, anti-penta-His HIS1K sensors): protein loaded in phosphate buffer pH 7.4 (PlGF 2.5 ug/mL, VEGF 10 ug/mL); aptamers 0-20 uM in 1X Sartorius Kinetics Buffer; 1:1 global fit, triplicate; temperature not stated.
Data set [3] has the same target. Put plainly: BLI; kon 3.169e3 1/Ms; koff 2.150e-1 1/s; BLI (Octet R4, anti-penta-His HIS1K sensors): protein loaded in phosphate buffer pH 7.4 (PlGF 2.5 ug/mL, VEGF 10 ug/mL); aptamers 0-20 uM in 1X Sartorius Kinetics Buffer; 1:1 global fit, triplicate; temperature not stated.

The molecule AGAGAACGCAAGAGA (ssRNA) [PlGF-Apt3] showed an equilibrium dissociation constant (Kd) in data set [1] of 0.298 nM.
With ACAGGCACA (ssRNA) [PlGF-Apt2], the affinity in data set [2], expressed as Kd, was 17.7 µM.
Turning to CGAAGAGACGCAGAGAAGC (ssRNA) [PlGF-Apt4], the dissociation constant Kd in data set [3] turned out to be 49.7 µM.
